In patent US20250041430A1, “CONJUGATE COMPOUND AND METHOD FOR PRODUCING CONJUGATE COMPOUND” (NIPPON SHOKUBAI CO., LTD., priority 2021, published 2025):

Tests used:
Exonuclease I [1] = target: Exonuclease I (Escherichia coli, UniProt P04995); conditions: room temperature (about 25° C.), 0, 10 and 20 minutes, FIG. 4
Protocol: (§1) Quantitative analysis of PGLMA-Mal-nucleic acid and an unmodified nucleic acid in a nucleic acid degradation test described below was performed by ion exchange chromatography. At this time, the analysis conditions were as follows. […]
(§2) To a test tube, 42.5 μL (1.00 nmol) of the PGLMA-Mal-nucleic acid solution obtained in the section of [Preparation of conjugate of Polymer 1 and oligonucleic acid], 5 μL of 10× buffer solution (670 mM Glycine-KOH (pH 9.5), 10 mM DTT, 67 mM MgCl2), 2.5 μL of ultrapure water, and 0.5 μL of Exonuclease I (Takara Bio Inc.) (0.05 Unit/L as the final concentration of Exonuclease I in the mixed solution) were added and mixed, and the mixture was allowed to stand still at room temperature (about 25° C.). […] After 0, 10, and 20 minutes from the start of the reaction, the reaction liquid was collected and analyzed under the analysis conditions in the section of [Analysis conditions of conjugate of Polymer 1 and oligonucleic acid] or the section of [Analysis conditions of unmodified oligonucleic acid], and a residual rate of the nucleic acid was calculated from the following formula.

[2] = test system: complement (SC5b-9) in human serum; test: Evaluation of complement activation (1), MicroVue SC5b-9 Plus EIA; conditions: 37° C., 1 hour, compared with BSA, FIG. 2
Protocol: Using a microspectrophotometer (NanoDrop ND-1000, Thermo Fisher Scientific Inc.), Conjugates 1 to 4 subjected to ultrafiltration treatment were each diluted with PBS so that the value at a wavelength of 280 nm was 100. On the other hand, a conjugate (PEG-BSA) prepared according to the description in the section of [Preparation of conjugate with protein] except that maleimide PEG (SUNBRIGHT ME-100MA, NOF CORPORATION) was used instead of Polymer 1, and 100 mg of BSA were each dissolved in 1 mL of PBS to prepare a control group. Each solution (40 μL) and human serum (purchased from Tennessee Blood Service) (160 μL) were mixed and incubated at 37° C. for 1 hour. […] For each mixed solution, complement activation was evaluated using an enzyme immunoassay kit (MicroVue™ SC5b-9 Plus EIA, Quidel Corporation). The complement concentration was measured according to the manufacturer's protocol, and the measurement was performed on a plate reader (SH-9000, CORONA ELECTRIC Co., Ltd.). A reaction liquid obtained by reacting PBS with human serum was used as a negative control, and a ratio of the measured value of the negative control and a measured value in each reaction liquid was calculated by the following formula.
(Ratio with negative control)=(Measured value in each sample)÷(Measured value of negative control)

[3] = test system: complement (SC5b-9) in human serum; test: Evaluation of complement activation (2), MicroVue SC5b-9 Plus EIA; conditions: 37° C., 1 hour, compared with the oligonucleic acid, FIG. 5
Excerpt: Using a microspectrophotometer (NanoDrop ND-1000, Thermo Fisher Scientific Inc.), Conjugates 5 and 6 thus obtained were each diluted with PBS so that the value at a wavelength of 260 nm was 100. On the other hand, a conjugate (PEG-nucleic acid) prepared according to the description in the section of [Preparation of conjugate of polymer and oligonucleic acid] except that maleimide PEG (SUNBRIGHT ME-100MA, NOF CORPORATION) was used instead of Polymer 3, and the oligonucleic acid (base sequence (5′-d (TAGCACCATGGTTT)-3′)) described in Example 2 were each dissolved in 20 μL of PBS so that the value at a wavelength of 260 nm was 100 by the method described above to prepare a control group. Each solution (4 μL) and human serum (purchased from Tennessee Blood Service) (16 μL) were mixed and incubated at 37° C. for 1 hour. […] For each mixed solution, complement activation was evaluated using an enzyme immunoassay kit (MicroVue™ SC5b-9 Plus EIA, Quidel Corporation). The complement concentration was measured according to the manufacturer's protocol, and the measurement was performed on a plate reader (SH-9000, CORONA ELECTRIC Co., Ltd.). A reaction liquid obtained by reacting PBS with human serum was used as a negative control, and a ratio of the measured value of the negative control and a measured value in each reaction liquid was calculated by the following formula.

Exonuclease I [4] = target: T1, Exonuclease I (Escherichia coli, UniProt P04995); conditions: room temperature (about 25° C.), 0, 10 and 20 minutes, FIG. 4; remark: listed apart in the source
T1 sequence (P04995 whole entry, looked up): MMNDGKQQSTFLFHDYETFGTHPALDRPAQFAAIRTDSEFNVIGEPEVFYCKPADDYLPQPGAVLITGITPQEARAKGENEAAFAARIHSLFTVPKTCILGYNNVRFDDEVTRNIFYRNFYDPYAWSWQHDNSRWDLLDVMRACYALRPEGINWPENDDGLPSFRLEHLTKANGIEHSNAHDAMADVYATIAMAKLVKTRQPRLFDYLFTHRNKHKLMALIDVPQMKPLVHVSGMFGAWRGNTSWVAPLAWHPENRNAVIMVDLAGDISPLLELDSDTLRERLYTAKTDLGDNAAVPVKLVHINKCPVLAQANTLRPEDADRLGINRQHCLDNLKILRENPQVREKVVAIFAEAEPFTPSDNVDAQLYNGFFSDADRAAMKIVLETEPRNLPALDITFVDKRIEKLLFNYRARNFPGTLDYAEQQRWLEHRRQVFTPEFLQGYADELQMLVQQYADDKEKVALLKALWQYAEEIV
Protocol: as §1, §2

5′-d (TAGCACCATGGTTT)-3′ [unmodified nucleic acid]
degradation of the nucleic acid (residual rate of the nucleic acid) (Exonuclease I [1]): degradation of the nucleic acid was observed over time

PEG-BSA: conjugate with BSA prepared using maleimide PEG (SUNBRIGHT ME-100MA) instead of Polymer 1
complement activation (ratio with negative control) [2]: strong complement activation occurred

Conjugate 5: maleimide group of Polymer 1 bonded to the thiol group of the oligonucleic acid 5′-d (TAGCACCATGGTTT)-3′ (DNA, backbone not given here; conjugated to polymer via maleimide-thiol, further chemistry not fully specified)
complement activation (ratio with negative control) [3]: no large difference from the measured value of the oligonucleic acid | degradation of the nucleic acid (residual rate of the nucleic acid) (Exonuclease I [4]): remarkable degradation of the nucleic acid was not observed
